We go through 14 sequences from a protein production outcome set (Wang et al. 2014).
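Note: failed if final PepcDB status was selected cloned or expressed and not failed if soluble or beyond.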

This data set in a line: label from the status in PepcDB records.
Consider “MNWSIPNILTVLRLLAAPGVAVMFLYFHRPWADWFALTLFILAAVTDFFDGYLARLWKQESKFGAMLDPIADKAMVVIALVIITGYSGMNPWLILPVTLILFREVFVSGLREFLGAKASLLKVTKLAKWKTTAQMVAIAILFLGTGLEHLEGIARQGMTWEQYARAVSAGEADPIRSCGMHGCSSYATWLGLALIWIAAALTFITGWDYFRKALPYLKDEK”, for which the protein production entry is recorded as “not failed”.

Turning to “MNYAFVVQARLGSTRLPGKILKPFYGNQSILDLMVHKLSAISNIPVIIATTNSVINEPIEKKALALGVKCFRGEENDVLKRFIDVAEYFDIQGIFRICSDNPFLDVHAARQLVEIAMKSCNDYISFDIDGTPSIKTHFGFWGEFVTLDALKRVIGFTDDLLYREHVTNYIYSHPELFNIQWISGSPVVSKHHNIRLTIDTLEDFSVAQRIYRDLQEKRVEISIEVIVDYVRRHAEYIQLMKQQIKKNSKLEHHHHHH”, the protein production result is recorded as “not failed”. For “MNYDDPKKKVGRNIKRLRLKAGIKSQAALAELCGWKSQSRVGNYEAGTRAVSAIDAETLAKVLNVTPAEILYGENNKDDDFVSMPSAQYSSGPYEEEDPFQLFKPKQELQNAEWHAGFELWDGDTPLRDDEVALPFYREVELAAGSGSTFVQENGGCKLRFAKSTLKKSRVEPSNAACVTVSGNSMLPVLRHGTTVGVDTSKKSIIDGEMYAIDHDGMLRVKMLYRTPGGGIRIKSYNNDEFPDEFIPPEKASDIKIIGWVFWWSVLNVWNN”, the protein production entry was “failed”.

For “MNYDMSSYFEDPEFKEALAKYEGMVENHTPAYFEADELIDIAEYYTLKGRHKDADKAIDLTLQLHPENTDALVFRIRSLMLQNKKEEAKVVAQLIANSTDRECRFLQADMLMEEDRIEEAEEIFKQLVMDEEYEVDTLLDIIQDYTNANQEEYAGQWVDCLFAHSDMQTLPKTNQRLRDVLCDYYSTFNKPDLAIPYLNMTLNEYPYSIEHWNELGKCHLQQCQYEEANEALDFALAIDDENTDSLTLKAFGYHQAGNLKESCDYYLRLANVSKNKTKAYLALAQIYLEMRDHASAISYIEKLINRKSGLTDYELAELYSDTALCHAYLGHTENGYKYINQALELNEHDAEIRIAAGRFFTIEAQKSDISEEEQENNLRNAEHQFTRALEFTPKEERFDVLFKIGSLYFDEHNFEYANQYFELINKEFPEDADATYFFLAYGYYHQQESASFMHYLAKIRKEIPDMYATMGTGDTILMTDTYFNEALRAIKEDVSTGKINLNKYL”, the protein production result is “failed”. As for “MNYECLIGVLSCLLVALPKGNCHSISGLNSTLNLPEIRGDQFLYFGFGSNMLIKRIHIQNPSAVRIGPALLPDYRLDFALESAGWSGSVATIVPTQGDHVWGTLWKIDLSNLPDIDSQEGVSQGIYEPRTVYVKLHGESESTPARAYLLTKQPESNLYELPKDSIPLSRQPSKTYLQCLVKGAIESSVPEDYVQRLRSIKHNGQVNSYLERKLELGGVTL”, the protein production entry was “failed”.

As for “MNYEIIDCIDSGTEYCPCHLAESGNCILCSQLNGKDFCDCVNWKGVCIYQEYTWNHNKAKKERSECICKIIKREEIDNNLIVLTIFIRKKLAEDLLYPGSYVFLRPTKSSRYYSSPISIMEASSDENIIKVIIEVKGIKTKSINELKEKDDIVLKGPYWNGVLGLKNIHSAKEGISLIIARGIGEAPIVPIMKKLYSNGNKVVVIADRGKFKANLIDKYLEEFSSETYNFNTLNKDGELPEDFKDFLLNFIRYNKVNLIHISGPNILTSKILDVVDEDIKISCSNNAKMCCGEGICGACSNIYDDDKMKRMCKVQIDPRYLFKGLRSI”, the protein production entry is recorded as “failed”. The entry for “MNYFPDEVIEHVFDFVASHKDRNSISLVCKSWHKIERFSRKEVFIGNCYAINPERLIRRFPCLKSLTLKGKPHFADFNLVPHEWGGFVHPWIEALARSRVGLEELRLKRMVVTDESLDLLSRSFANFKSLVLVSCEGFTTDGLASIAANCRHLRELDLQENEIDDHRGQWLNCFPDSCTTLMSLNFACLKGETNVAALERLVARSPNLKSLKLNRAVPLDALARLMSCAPQLVDLGVGSYENEPDPESFAKLMTAIKKYTSLRSLSGFLEVAPLCLPAFYPICQNLISLNLSYAAEIQGNHLIKLIQLCKRLQRLWILDSIGDKGLAVVAATCKELQELRVFPSDVHGEEDNNASVTEVGLVAISAGCPKLHSILYFCKQMTNAALIAVAKNCPNFIRFRLCILEPHKPDHITFQSLDEGFGAIVQACKGLRRLSVSGLLTDQVFLYIGMYAEQLEMLSIAFAGDTDKGMLYVLNGCKKMRKLEIRDSPFGNAALLADVGRYETMRSLWMSSCEVTLGGCKRLAQNSPRLNVEIINENENNGMEQNEEDEREKVDKLYLYRTVVGTRKDAPPYVRIL” is “failed”; for “MNYKELLEFNDYAMDLTIRMAHHSTAIENNPLSLAETISILTTEYIPREMPQRAFFEVKNYQNMLFFLLENLNKGQSVDSFFIRELHGILMNFLLPNKGAFKTTDNTILGASFETTPIFKCLWL” it is “failed”; for “MNYKLTLHPGSNPVEEFTSIPHGVTSLDLSLNNLYSISTVELIQAFANTPASVTSLNLSGNSLGFKNSDELVQILAAIPANVTSLNLSGNFLSYKSSDELVKTLAAIPFTITVLDLGWNDFSSKSSSEFKQAFSNLPASITSLNLRGNDLGIKSSDELIQILAAIPANVNSLNLRGNNLASKNCAELAKFLASIPASVTSLDLSANLLGLKSYAELAYIFSSIPNHVVSLNLCLNCLHGPSLENLKLLKDSLKHLQTVYLDYDIVKNMSKEQCKALGAAFPNIQKIILVDKNGKEIHPSHSIPISNLIRELSGKADVPSLLNQCLIFAQKHQTNIEDLNIPDELRESIQTCKPLLEHHHHHH” it is “not failed”.

As to “MNYSIRLFKIMGIPIELHITFILFLVVIIGLSIMNNSIFWAVLFILLFVSVVLHELGHSYVAKKYGVKIEKILLLPIGGVAMMDKIPKEGELRIGIAGPLVSFIIGIVLLIVSQFFDININGYPLLYTLSLLNLMLGGFNLIPAFPMDGGRILRAILSKKYGYLKSTKIAANIGKSLALIMLLFGLLSMNIILILVSLFVYFGAEQESRVVEVETIFKNIKAKDIMTPNPVYVTPDMSIEEFLDFMLKHKYFGYPVVENGKLVGCIGIGNIHKKEGTVRDYMEKPVVVSEDTDIKEILRKMANTDRVFVVEGGKLKGIISKTDILRAMSILELKEELKD”, the protein production result is “failed”. As for “MNYSSRQQPKRNWLRKVDWILVLVISLLALTSVILISSAMGGGQYSANFSIRQIIYYIFGAIIAFLIMIISPKKIKNNTYILYSIFCVLLIGLLILPETSITPIINGAKSWYSFGPISIQPSEFMKIILILALAKTISKHNQFTFNKSFQSDLMLFFKILGVSIIPMALILLQNDLGTTLVLCAIIAGVMLVSGITWRILAPLFIVAFVSGSSIILAIIYKPSLIENLLGIKMYQMGRINSWLDPYSYSSGDGYHLTESLKAIGSGQLLGKGYNHGEVYIPENHTDFIFSVIGEEMGFIGSVLLILLFLFLIFHLIRLASKIDSQFNKVFIIGYVSLIVFHVLQNIGMTVQLLPITGIPLPFISYGGSSLWSLMTGIGVVLSIYYHEPQRYEITTLSKKSNTI”, the protein production entry is reported as “failed”. The entry for “MPADWLARPRFVSAFSIVVFLLLAAFGEYVVRIEAERLRVIAQNQVLAEASTIRARLEGELYSTLYLANGLSSYVSAHKALDPAAVKIILSTVFGYGRHLRNIVLAPDNEVRFTYPLKGNEKVIGFRYQDNAEQWRAVKRAMETRTTVLSGPVDLVQGGRGLISRTPVFLPDGEYWGIVALVINIDSLFATINKDRRPARITWALRSNDETGEKGRILFGDAWLFDHDHVNLSIAIPGGSWELAATPAEGWRPPGKRLLVLRIATLALSGLIAALVFLVLFERIRIQHLALHDSLTDLPNRRLLDDRLERAIAQARRNRDGFALLYVDLDDFKPINDRFGHRAGDHVLVEIARRLRGALRRADTVARVGGDEFMLILPGARGRHGAMTVVQKLAGIICQPIGYKGQYLNVSASIGVSTYPENGVTADALISHADGSMYRFKQHRKSPTDINGNQRSGAVSSEVS” is “failed”. The entry for “MPAIEVGETFTETRTFRPEDVDQFTALSGDDQPRHTEPDGDGRRMVQGLLTASLLTSIGGDLEVLASRMDLQFQRPVYTGETLVCELTVVSADPHTDGGVALVGDVAVRRVNRDDNSGQADTAAPNSADSAPAGTVVLEATVEGLIRE” is “failed”; for “MPALSGLHLAPSVASFLCLAWTVALYFAVKPLYQRLPRIWLSPAIVVPALTIPLLLITGIPYAEYVADTRWMVWLLGPATIAFAVPIYEHREIVRRHWIALALGVIAGMLVAMLSARLLAEAFHFSSEVSSSLMARSVSTPFAVAVVAHTGGSAELVSLFTVMTGLAGMIVGDTVLGLLRLRSPVAQGASLGTAAHGFGTARARQRHAEEGVVASLTMVLAGVLMVIAGPTLTGWVTALVG” it is “failed”.
